According to PMC8115485 (Nature Communications, 2021):
Blank lines part the entries; values can stand above or below the molecule they belong to.

How the values were obtained:
[1] = molecular target: T1, HisH (Thermotoga maritima, UniProt Q9X0C8, C84S); assay: NMR titration in the presence of ProFAR; type: binding; set-up: HisFH-hC84S complex; with HisF
T1 sequence (Q9X0C8 1-201 C84S): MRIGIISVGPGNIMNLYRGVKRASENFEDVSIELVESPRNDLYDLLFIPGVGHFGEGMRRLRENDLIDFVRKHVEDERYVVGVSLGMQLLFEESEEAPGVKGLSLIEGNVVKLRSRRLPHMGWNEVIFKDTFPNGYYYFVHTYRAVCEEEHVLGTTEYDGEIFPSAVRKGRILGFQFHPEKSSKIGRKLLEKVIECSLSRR
T1 sequence (Q9X0C6 1-253 partner): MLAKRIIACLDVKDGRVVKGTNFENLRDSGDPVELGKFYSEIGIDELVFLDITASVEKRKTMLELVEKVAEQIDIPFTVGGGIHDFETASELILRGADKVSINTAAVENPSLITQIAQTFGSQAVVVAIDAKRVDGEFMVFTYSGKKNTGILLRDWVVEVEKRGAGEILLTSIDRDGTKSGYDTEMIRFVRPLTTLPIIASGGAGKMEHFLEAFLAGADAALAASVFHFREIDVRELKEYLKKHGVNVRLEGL

[2] = molecular target: T2, HisH (Thermotoga maritima, UniProt Q9X0C8, C84A); assay: X-ray crystal structure at […] Å; type: binding
T2 construct: HisFH-hC84A complex; with HisF
T2 sequence (Q9X0C8 1-201 C84A): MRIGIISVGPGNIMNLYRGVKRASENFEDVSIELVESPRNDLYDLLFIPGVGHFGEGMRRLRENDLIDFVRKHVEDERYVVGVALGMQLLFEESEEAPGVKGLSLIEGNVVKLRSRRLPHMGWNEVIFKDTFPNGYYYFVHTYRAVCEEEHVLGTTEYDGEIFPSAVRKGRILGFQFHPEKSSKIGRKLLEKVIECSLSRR
T2 sequence (Q9X0C6 1-253 partner): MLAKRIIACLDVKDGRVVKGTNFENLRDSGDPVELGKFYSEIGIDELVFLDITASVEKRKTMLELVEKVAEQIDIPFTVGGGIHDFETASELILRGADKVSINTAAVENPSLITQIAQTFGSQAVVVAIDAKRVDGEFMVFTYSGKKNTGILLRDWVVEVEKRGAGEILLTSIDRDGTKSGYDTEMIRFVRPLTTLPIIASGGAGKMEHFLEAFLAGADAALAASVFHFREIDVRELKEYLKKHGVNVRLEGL

[3] = molecular target: T1, HisH; assay: biochemical
[4] = molecular target: T3, HisH (Thermotoga maritima, UniProt Q9X0C8); assay: NMR titration (methyl TROSY); type: binding; set-up: WT HisFH complex; with HisF
T3 sequence (Q9X0C8 1-201): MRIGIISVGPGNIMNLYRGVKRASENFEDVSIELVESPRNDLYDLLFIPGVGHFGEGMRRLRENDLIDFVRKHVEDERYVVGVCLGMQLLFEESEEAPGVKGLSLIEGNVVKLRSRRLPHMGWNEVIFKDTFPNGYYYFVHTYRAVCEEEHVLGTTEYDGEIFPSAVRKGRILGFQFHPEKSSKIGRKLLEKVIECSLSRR
T3 sequence (Q9X0C6 1-253 partner): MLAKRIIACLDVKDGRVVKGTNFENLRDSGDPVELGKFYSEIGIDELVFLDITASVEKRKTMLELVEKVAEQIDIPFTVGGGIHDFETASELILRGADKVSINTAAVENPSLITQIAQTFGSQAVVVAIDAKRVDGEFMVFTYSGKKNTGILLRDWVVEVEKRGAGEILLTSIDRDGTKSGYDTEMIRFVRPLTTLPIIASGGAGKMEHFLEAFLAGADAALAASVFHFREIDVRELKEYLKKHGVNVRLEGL

[5] = molecular target: T4, HisF (Thermotoga maritima, UniProt Q9X0C6); assay: X-ray crystal structure at […] Å; NMR titration; glutaminase activation; type: binding
T4 construct: HisF-wt without tag, in the HisFH-hC84A complex; with HisH (hC84A)
T4 sequence (Q9X0C6 1-253): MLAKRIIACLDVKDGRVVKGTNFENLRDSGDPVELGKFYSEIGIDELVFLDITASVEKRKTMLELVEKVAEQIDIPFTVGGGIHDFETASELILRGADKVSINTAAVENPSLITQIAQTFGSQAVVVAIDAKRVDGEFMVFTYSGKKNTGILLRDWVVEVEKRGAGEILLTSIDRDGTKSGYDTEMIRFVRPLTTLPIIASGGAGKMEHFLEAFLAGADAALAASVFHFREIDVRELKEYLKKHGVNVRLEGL
T4 sequence (Q9X0C8 1-201 C84A partner): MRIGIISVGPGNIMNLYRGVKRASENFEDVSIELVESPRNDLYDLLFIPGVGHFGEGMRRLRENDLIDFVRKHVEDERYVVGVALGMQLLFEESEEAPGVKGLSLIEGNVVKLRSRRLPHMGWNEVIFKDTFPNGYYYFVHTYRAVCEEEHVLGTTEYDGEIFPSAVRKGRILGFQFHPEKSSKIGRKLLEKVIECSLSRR

[6] = molecular target: T5, HisF, cyclase subunit of imidazole glycerol phosphate synthase from Thermotoga maritima, wild type, without … (Thermotoga maritima, UniProt Q9X0C6 1-253); assay: crystal structure; HisFH-hC84A complex at 30 mg/ml in 10 mM Tris-HCl pH 8.0, 100 mM NaCl; hanging drop, 18 °C, 10 mM L-glutamine, 10 mM ProFAR added by soaking; 2.06 Å; three HisFH complexes in the asymmetric unit; conditions: both partners purified
T5 construct: HisF of Thermotoga maritima, Uniprot ID Q9X0C6; Crystallised as the HisFH-hC84A complex; also called HisF-wt; source: E. coli, expressed separately; cell lysate combined with that of HisH before the NiNTA column, complex purified (NiNTA, SEC)
T5 sequence: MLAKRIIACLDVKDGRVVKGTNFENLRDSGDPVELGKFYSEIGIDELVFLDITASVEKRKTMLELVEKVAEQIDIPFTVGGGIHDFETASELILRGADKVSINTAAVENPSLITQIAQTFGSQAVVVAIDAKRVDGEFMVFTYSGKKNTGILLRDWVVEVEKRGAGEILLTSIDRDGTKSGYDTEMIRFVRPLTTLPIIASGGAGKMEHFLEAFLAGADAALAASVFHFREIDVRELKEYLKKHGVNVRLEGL

[7] = molecular target: T6, HisF, cyclase subunit of imidazole glycerol phosphate synthase from Thermotoga maritima, wild type (NMR … (Thermotoga maritima, UniProt Q9X0C6 1-253)); assay: NMR spectra (TROSY, methyl-TROSY) of the complex reconstituted by SEC; HisF and HisH combined at a 1.3/1 ratio after TEV digestion, free HisF removed on Superdex 75 in NMR buffer (50 mM NaCl, 20 mM HEPES pH 7.3, 1 mM DTT); spectra at 30 °C, 50-150 µM protein; conditions: both partners purified
T6 construct: HisF of Thermotoga maritima, Uniprot ID Q9X0C6; Deuterated and 15N labelled where HisF is observed; also called WT HisF; HisF-wt; source: E. coli BL21-CodonPlus (DE3)-RIL or BL21 Gold (DE3), purified (heat shock, NiNTA, TEV digestion, SEC); not shown: His-tag, N-terminal, cleaved
T6 sequence: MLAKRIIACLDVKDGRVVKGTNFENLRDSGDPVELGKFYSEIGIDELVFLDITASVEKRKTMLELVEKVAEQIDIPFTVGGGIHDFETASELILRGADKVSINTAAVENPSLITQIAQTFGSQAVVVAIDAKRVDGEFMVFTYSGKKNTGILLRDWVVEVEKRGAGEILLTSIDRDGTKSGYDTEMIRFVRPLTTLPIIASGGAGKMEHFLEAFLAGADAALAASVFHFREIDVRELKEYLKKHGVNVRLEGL

[8] = molecular target: T7, HisF from Thermotoga maritima, K19A mutant (Thermotoga maritima, UniProt Q9X0C6 1-253, fK19A); assay: as above; conditions: both partners purified
T7 construct: HisF of Thermotoga maritima, Uniprot ID Q9X0C6; also called fK19A; source: E. coli, purified
T7 sequence (looked up): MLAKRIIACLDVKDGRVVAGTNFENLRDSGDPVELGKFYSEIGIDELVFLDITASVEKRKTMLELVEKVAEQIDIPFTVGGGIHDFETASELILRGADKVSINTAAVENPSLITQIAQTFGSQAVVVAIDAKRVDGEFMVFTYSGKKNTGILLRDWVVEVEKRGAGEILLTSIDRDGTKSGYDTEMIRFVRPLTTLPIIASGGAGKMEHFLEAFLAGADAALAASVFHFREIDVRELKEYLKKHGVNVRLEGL

[9] = molecular target: T8, HisF from Thermotoga maritima, V48A mutant (Thermotoga maritima, UniProt Q9X0C6 1-253, fV48A); assay: as above; conditions: both partners purified
T8 construct: HisF of Thermotoga maritima, Uniprot ID Q9X0C6; also called fV48A; source: E. coli, purified
T8 sequence (looked up): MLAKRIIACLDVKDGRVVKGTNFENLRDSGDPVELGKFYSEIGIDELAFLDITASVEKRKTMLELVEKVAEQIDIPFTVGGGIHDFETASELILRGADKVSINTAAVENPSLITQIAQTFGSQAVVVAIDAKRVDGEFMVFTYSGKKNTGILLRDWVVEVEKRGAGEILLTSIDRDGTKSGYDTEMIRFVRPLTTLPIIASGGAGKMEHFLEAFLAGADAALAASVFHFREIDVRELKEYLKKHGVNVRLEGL

[10] = molecular target: T9, HisF from Thermotoga maritima, F23A mutant (Thermotoga maritima, UniProt Q9X0C6 1-253, fF23A); assay: as above; conditions: both partners purified
T9 construct: HisF of Thermotoga maritima, Uniprot ID Q9X0C6; also called fF23A; source: E. coli, purified
T9 sequence (looked up): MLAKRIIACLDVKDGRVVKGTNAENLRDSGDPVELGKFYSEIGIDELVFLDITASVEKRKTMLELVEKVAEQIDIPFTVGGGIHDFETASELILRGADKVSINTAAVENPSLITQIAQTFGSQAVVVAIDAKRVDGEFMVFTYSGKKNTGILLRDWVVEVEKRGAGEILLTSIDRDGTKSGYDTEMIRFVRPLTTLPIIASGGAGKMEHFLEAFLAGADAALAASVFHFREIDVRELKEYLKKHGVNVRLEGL

[11] = molecular target: T10, HisF from Thermotoga maritima, D98E mutant (Thermotoga maritima, UniProt Q9X0C6 1-253, fD98E); assay: as above; conditions: both partners purified
T10 construct: HisF of Thermotoga maritima, Uniprot ID Q9X0C6; also called fD98E; HisF-D98E; source: E. coli, purified
T10 sequence (looked up): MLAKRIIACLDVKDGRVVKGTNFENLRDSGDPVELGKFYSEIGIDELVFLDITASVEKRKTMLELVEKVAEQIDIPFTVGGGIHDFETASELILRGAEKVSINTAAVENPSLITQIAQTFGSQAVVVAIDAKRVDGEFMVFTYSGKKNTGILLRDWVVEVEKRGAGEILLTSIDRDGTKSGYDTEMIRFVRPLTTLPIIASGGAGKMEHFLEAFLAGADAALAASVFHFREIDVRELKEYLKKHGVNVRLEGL

Molecule: NC(=O)NC[C@H](N)C(=O)O [Albizziin]
- NMR titration in the presence of ProFAR [1]: for the HisFH–hC84S mutant the active conformation is clearly visible

Molecule: NC(=O)CC[C@H](N)C(=O)O [Gln]
- X-ray crystal structure at 2.06 Å [2]: The asymmetric unit contains three HisFH complexes
- Kd [3]: 1700 ± 100 µM
- Kd [4]: 1300 ± 100 µM

Molecule: NC(=O)c1ncn([C@@H]2O[C@H](COP(=O)(O)O)[C@@H](O)[C@H]2O)c1N=CN[C@@H]1O[C@H](COP(=O)(O)O)[C@@H](O)[C@H]1O [ProFAR]
- X-ray crystal structure at 2.06 Å; NMR titration; glutaminase activation [5]: the HisF active site shows unambiguous electron density for a ProFAR molecule

Other lines, results leading:

- binding result [6]: binds
B1: HisH, glutaminase subunit of imidazole glycerol phosphate synthase from Thermotoga maritima, C84A mutant (crystallisation construct) (enzyme)
chain: MRIGIISVGPGNIMNLYRGVKRASENFEDVSIELVESPRNDLYDLLFIPGVGHFGEGMRRLRENDLIDFVRKHVEDERYVVGVALGMQLLFEESEEAPGVKGLSLIEGNVVKLRSRRLPHMGWNEVIFKDTFPNGYYYFVHTYRAVCEEEHVLGTTEYDGEIFPSAVRKGRILGFQFHPEKSSKIGRKLLEKVIECSLSRR
notes: HisH of Thermotoga maritima, Uniprot ID Q9X0C8; also called hC84A; HisH-C84A; source: E. coli, expressed separately; cell lysate combined with that of HisF before the NiNTA column, complex purified (NiNTA, SEC)

- binding result [7]: binds
- binding result [8]: binds
- binding result [9]: binds
- binding result [10]: binds
- binding result [11]: binds
B2: HisH, glutaminase subunit of imidazole glycerol phosphate synthase from Thermotoga maritima, C84S mutant (enzyme, UniProt Q9X0C8 1-201, looked up)
chain: MRIGIISVGPGNIMNLYRGVKRASENFEDVSIELVESPRNDLYDLLFIPGVGHFGEGMRRLRENDLIDFVRKHVEDERYVVGVSLGMQLLFEESEEAPGVKGLSLIEGNVVKLRSRRLPHMGWNEVIFKDTFPNGYYYFVHTYRAVCEEEHVLGTTEYDGEIFPSAVRKGRILGFQFHPEKSSKIGRKLLEKVIECSLSRR
notes: HisH of Thermotoga maritima, Uniprot ID Q9X0C8; Deuterated, ILMVA methyl labelled or histidine ring-13C2 labelled for NMR; also called hC84S; HisH-C84S; source: E. coli BL21-CodonPlus (DE3)-RIL, purified (heat shock, NiNTA, TEV digestion, SEC); not shown: His-tag, N-terminal, cleaved

- binding result [7]: binds
B3: HisH from Thermotoga maritima, C84A mutant (NMR samples) (enzyme, UniProt Q9X0C8 1-201, looked up)
chain: MRIGIISVGPGNIMNLYRGVKRASENFEDVSIELVESPRNDLYDLLFIPGVGHFGEGMRRLRENDLIDFVRKHVEDERYVVGVALGMQLLFEESEEAPGVKGLSLIEGNVVKLRSRRLPHMGWNEVIFKDTFPNGYYYFVHTYRAVCEEEHVLGTTEYDGEIFPSAVRKGRILGFQFHPEKSSKIGRKLLEKVIECSLSRR
notes: HisH of Thermotoga maritima, Uniprot ID Q9X0C8; probably the same construct as m2, kept apart because the state of the tag is told only for the labelled proteins; also called hC84A; source: E. coli BL21-CodonPlus (DE3)-RIL, purified (heat shock, NiNTA, TEV digestion, SEC); not shown: His-tag, N-terminal, cleaved
